# US20260217833A1 (APTEVO RESEARCH AND DEVELOPMENT, published 2026)
# Biological target: T1, Human PD-L1 full-length (human, UniProt Q9NZQ7 19-290)
# T1 construct: also called PDL01021; CHOK1SV/huPDL1
# Assay: flow cytometry, CHOK1SV/human PD-L1 cells
# T1 sequence (Q9NZQ7 19-290): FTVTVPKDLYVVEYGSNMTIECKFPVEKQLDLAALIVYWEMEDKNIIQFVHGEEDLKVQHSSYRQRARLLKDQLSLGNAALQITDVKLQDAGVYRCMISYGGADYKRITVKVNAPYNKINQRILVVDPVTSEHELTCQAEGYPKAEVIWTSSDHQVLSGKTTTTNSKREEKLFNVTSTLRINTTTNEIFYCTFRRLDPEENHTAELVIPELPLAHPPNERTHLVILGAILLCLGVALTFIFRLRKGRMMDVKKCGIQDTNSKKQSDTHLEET
row,binding result,Binder
1,binds,CD4001076 (bispecific antibody) PDL_5F9 x Fc-Knob: EVQLVESGGGLVKPGGSLRLSCAASGFTFSDYGMAWVRQAPGKGLEWVAFITSLAYIIYYADSVKGRFTISRDNAKNSLYLQMNSLRAEDTAVYYCARNYGSSPYYFDYWGQGTLVTVSSGGGGSGGGGSGGGGSGGGGSDIQMTQSPSSLSASVGDRVTITCRASQDINKFLSWYQQKPGKAPKLLIHYTSSLQPGVPSRFSGSGSGTDFTLTISSLQPEDFATYYCLQYDNLYTFGQGTKLEIKEPKSSDKTHTCPPCPAPPAAAPSVFLFPPKPKDTLMISRTPEVTCVVVDVSHEDPEVKFNWYVDGVEVHNAKTKPREEQYNSTYRVVSVLTVLHQDWLNGKEYKCAVSNKALPAPIEKTISKAKGQPREPQVYTLPPSRDELTKNQVSLWCLVKGFYPSDIAVEWESNGQPENNYKTTPPVLDSDGSFFLYSKLTVDKSRWQQGNVFSCSVMHEALHNHYTQKSLSLSPG PDL_5F9 x Fc-Hole x CD40_2H7: EVQLVESGGGLVKPGGSLRLSCAASGFTFSDYGMAWVRQAPGKGLEWVAFITSLAYIIYYADSVKGRFTISRDNAKNSLYLQMNSLRAEDTAVYYCARNYGSSPYYFDYWGQGTLVTVSSGGGGSGGGGSGGGGSGGGGSDIQMTQSPSSLSASVGDRVTITCRASQDINKFLSWYQQKPGKAPKLLIHYTSSLQPGVPSRFSGSGSGTDFTLTISSLQPEDFATYYCLQYDNLYTFGQGTKLEIKEPKSSDKTHTCPPCPAPPAAAPSVFLFPPKPKDTLMISRTPEVTCVVVDVSHEDPEVKFNWYVDGVEVHNAKTKPREEQYNSTYRVVSVLTVLHQDWLNGKEYKCAVSNKALPAPIEKTISKAKGQPREPQVYTLPPSRDELTKNQVSLSCAVKGFYPSDIAVEWESNGQPENNYKTTPPVLDSDGSFFLVSKLTVDKSRWQQGNVFSCSVMHEALHNRFTQKSLSLSPGGGGSPSDIVMTQSHKFMSTSVGDRVSITCKASQDVNTAVAWYQQKPGQSPKLLIYSASYRYTGVPDRFTGSGSGTDFTFTISSVQAEDLAVYYCQQHYSTPWTFGGGTKLEIKGGGGSGGGGSGGGGSGGGGSQVQLQQSGAELAKPGASVKMSCKASGYAFTTYWMHWVKQRPGQGLEWIGYINPTTGYTDYNQKFKDKATLTADKSSSTAYMQLSSLTSEDSAVYYCARWGLPPFAYWGQGTLVTVSA
2,binds,CD4001072 (bispecific antibody) Fc-Knob x PDL_5F9: EPKSSDKTHTCPPCPAPPAAAPSVFLFPPKPKDTLMISRTPEVTCVVVDVSHEDPEVKFNWYVDGVEVHNAKTKPREEQYNSTYRVVSVLTVLHQDWLNGKEYKCAVSNKALPAPIEKTISKAKGQPREPQVYTLPPSRDELTKNQVSLWCLVKGFYPSDIAVEWESNGQPENNYKTTPPVLDSDGSFFLYSKLTVDKSRWQQGNVFSCSVMHEALHNHYTQKSLSLSPGGGGSPSEVQLVESGGGLVKPGGSLRLSCAASGFTFSDYGMAWVRQAPGKGLEWVAFITSLAYIIYYADSVKGRFTISRDNAKNSLYLQMNSLRAEDTAVYYCARNYGSSPYYFDYWGQGTLVTVSSGGGGSGGGGSGGGGSGGGGSDIQMTQSPSSLSASVGDRVTITCRASQDINKFLSWYQQKPGKAPKLLIHYTSSLQPGVPSRFSGSGSGTDFTLTISSLQPEDFATYYCLQYDNLYTFGQGTKLEIK CD40_1D5 x Fc-Hole x PDL_5F9: DIVMSQSPSSLAVSVGEKVTMSCKSSQSLLFSVNQKNYLAWYQQKPGQSPKLLIYWASTRESGVPDRFTGSGSGTDFTLTIGSVKAEDLAVYYCQHYYSYPWTFGGGTKLEIKGGGGSGGGGSGGGGSGGGGSQVQLQQSGAELMNPGASVRISCKATGYTFSTSWIEWIKQRPGHGLEWIGEILPGSGSTNYNEKFKGKATFTADTSSNTAYMQLSSLTFEDSAVYYCARGDDGSYVRWYFDVWGAGTTVTVSSEPKSSDKTHTCPPCPAPPAAAPSVFLFPPKPKDTLMISRTPEVTCVVVDVSHEDPEVKFNWYVDGVEVHNAKTKPREEQYNSTYRVVSVLTVLHQDWLNGKEYKCAVSNKALPAPIEKTISKAKGQPREPQVYTLPPSRDELTKNQVSLSCAVKGFYPSDIAVEWESNGQPENNYKTTPPVLDSDGSFFLVSKLTVDKSRWQQGNVFSCSVMHEALHNRFTQKSLSLSPGGGGSPSEVQLVESGGGLVKPGGSLRLSCAASGFTFSDYGMAWVRQAPGKGLEWVAFITSLAYIIYYADSVKGRFTISRDNAKNSLYLQMNSLRAEDTAVYYCARNYGSSPYYFDYWGQGTLVTVSSGGGGSGGGGSGGGGSGGGGSDIQMTQSPSSLSASVGDRVTITCRASQDINKFLSWYQQKPGKAPKLLIHYTSSLQPGVPSRFSGSGSGTDFTLTISSLQPEDFATYYCLQYDNLYTFGQGTKLEIK
3,binds,CD4001075 (bispecific antibody) CD40_1D5 x Fc-Knob: DIVMSQSPSSLAVSVGEKVTMSCKSSQSLLFSVNQKNYLAWYQQKPGQSPKLLIYWASTRESGVPDRFTGSGSGTDFTLTIGSVKAEDLAVYYCQHYYSYPWTFGGGTKLEIKGGGGSGGGGSGGGGSGGGGSQVQLQQSGAELMNPGASVRISCKATGYTFSTSWIEWIKQRPGHGLEWIGEILPGSGSTNYNEKFKGKATFTADTSSNTAYMQLSSLTFEDSAVYYCARGDDGSYVRWYFDVWGAGTTVTVSSEPKSSDKTHTCPPCPAPPAAAPSVFLFPPKPKDTLMISRTPEVTCVVVDVSHEDPEVKFNWYVDGVEVHNAKTKPREEQYNSTYRVVSVLTVLHQDWLNGKEYKCAVSNKALPAPIEKTISKAKGQPREPQVYTLPPSRDELTKNQVSLWCLVKGFYPSDIAVEWESNGQPENNYKTTPPVLDSDGSFFLYSKLTVDKSRWQQGNVFSCSVMHEALHNHYTQKSLSLSPG CD40_1D5 x Fc-Hole x PDL_5F9: DIVMSQSPSSLAVSVGEKVTMSCKSSQSLLFSVNQKNYLAWYQQKPGQSPKLLIYWASTRESGVPDRFTGSGSGTDFTLTIGSVKAEDLAVYYCQHYYSYPWTFGGGTKLEIKGGGGSGGGGSGGGGSGGGGSQVQLQQSGAELMNPGASVRISCKATGYTFSTSWIEWIKQRPGHGLEWIGEILPGSGSTNYNEKFKGKATFTADTSSNTAYMQLSSLTFEDSAVYYCARGDDGSYVRWYFDVWGAGTTVTVSSEPKSSDKTHTCPPCPAPPAAAPSVFLFPPKPKDTLMISRTPEVTCVVVDVSHEDPEVKFNWYVDGVEVHNAKTKPREEQYNSTYRVVSVLTVLHQDWLNGKEYKCAVSNKALPAPIEKTISKAKGQPREPQVYTLPPSRDELTKNQVSLSCAVKGFYPSDIAVEWESNGQPENNYKTTPPVLDSDGSFFLVSKLTVDKSRWQQGNVFSCSVMHEALHNRFTQKSLSLSPGGGGSPSEVQLVESGGGLVKPGGSLRLSCAASGFTFSDYGMAWVRQAPGKGLEWVAFITSLAYIIYYADSVKGRFTISRDNAKNSLYLQMNSLRAEDTAVYYCARNYGSSPYYFDYWGQGTLVTVSSGGGGSGGGGSGGGGSGGGGSDIQMTQSPSSLSASVGDRVTITCRASQDINKFLSWYQQKPGKAPKLLIHYTSSLQPGVPSRFSGSGSGTDFTLTISSLQPEDFATYYCLQYDNLYTFGQGTKLEIK
